From patent US5830995 (Bristol-Myers Squibb Company, dated 1998)

target: T1, human EGF receptor (human, UniProt P00533); experiment: competition of 125I-EGF binding to NRHER5 membranes, 50% inhibition

Molecule	IC50 [nM]
gp35, 35-40 kD soluble high molecular weight form of human AR (ligand)	> 300
native amphiregulin (AR) purified from TPA-treated MCF-7 cells (ligand)	100
bacterially produced AAAT (ligand) MVVKPPQNKTESENTSDKPKRKKKGGKNGKNRRNRKKKNPCNAEFQNFCIHGECKYIEHLEAVTCKCQQEYFGERCGEKDLLA	~1.5
recombinant human AR 18 kD purified from CHO/ARGE 2a cells (ligand, N-linked glycosylation at Asn-113) NKTESEKTSDKPKRKKKGGKNGKNRRNRKKKNLCDTEFQNFCIHGKCTFLEQLETVSCQCYPEYFGERCGEKSMKTQSMVD	~100
bacterially produced AR-SMKT (ligand) MVVKPPQNKTESENTSDKPKRKKKGGKNGKNRRNRKKKNPCNAEFQNFCIHGECKYIEHLEAVTCKCQQEYFGERCGEKSMKT	~150

target: T1, human EGF receptor; experiment: competition of 125I-EGF binding to NRHER5 membranes

Molecule	maximum competition [%]
native amphiregulin (AR) purified from TPA-treated MCF-7 cells (ligand)	85
